Source: the supplement of paper PMC10567573
± gives the standard deviation.

Experiment: protein stability index of a GFP-peptide fusion (GPS, HEK-293T) (PSI 1-6); higher = more stable
Settings: c terminus: a fixed tail appended
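Also: 24-mer peptide tiles fused after GFP, lentivirally expressed, FACS-sorted into six equal bins by GFP/DsRed ratio, decoded by Illumina sequencing, PSI is the read-weighted mean bin number.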

| Sequence | protein stability index (treatment: DMSO) | protein stability index (treatment: MLN4924 1 uM, 8 h) |
| --- | --- | --- |
| LLRTARVRRECWFLPTALLCAYGF [SLC19A2] | 2.54 ± 0.8 | 2.54 ± 0.43 |
| GHGIVGTIVKARDKLYHPECFMCS [PDLIM4] | 2.45 ± 0.069 | 2.67 ± 0.21 |
| SSVQKALFEEEDHVKKLQQKVATL [CCDC3] | 4.46 ± 0.33 | 4.49 ± 0.32 |
| DGLRLLGARARGVAMLGVFLVSAV [SOAT2] | 2.56 ± 0.53 | 2.49 ± 0.38 |
| GEYIYTGNAKGKILVLKTDSQDLV [RBBP5] | 2.25 ± 0.24 | 2.45 ± 0.57 |
| ARPWTRDSASLPRKPSVPWQRQMD [RASAL3] | 2.73 ± 0.22 | 2.94 ± 0.42 |
| PNVLCSMSGKSPVESSLNVKTKKN [FBXO34] | 4.84 ± 0.29 | 4.9 ± 0.1 |
| SDLSRRSSSTMSKSEYMEIEEDMN [KCNA1] | 5.21 ± 0.33 | 5.38 ± 0.1 |
| CRRSIRSALGRQRLQDISSLPLPQ [SPSB4] | 3.03 ± 0.38 | 3.33 ± 0.43 |
| FGIVEIDGMLYILGGEDGEKELIS [GAN] | 2.35 ± 0.25 | 2.31 ± 0.29 |
| SGLIQTVFISSYMVLAPVFGYLGD [SPNS1] | 3.5 ± 0.3 | 3.16 ± 0.22 |
| NKLALQYGCKVADIKKVNNFIREQ [LYSMD4] | 2.25 ± 0.22 | 2.38 ± 0.42 |
| HWPQGPTGPPGPPGPMGPPGPPGP [EMID1] | 4.66 ± 0.22 | 4.73 ± 0.45 |
| SDNILSPVMNGGVQTWTQPRLCYL [PDZK1] | 2.19 ± 0.31 | 2.46 ± 0.56 |
| TSRGGPWVGTGLAAALAGLVGLAT [CPOX] | 1.89 ± 0.93 | 2.49 ± 0.087 |
| QAWFGFAGTPGYLSPEVLRKEAYG [CAMK2B] | 2.55 ± 0.22 | 2.76 ± 0.22 |
| VCYTACATLKGPDSHYGTKGLKKV [BTBD1] | 3.06 ± 0.42 | 3.21 ± 0.23 |
| KLREKERKKEAKRKISSLSFTLEE [FAM50A] | 4.29 ± 0.3 | 4.53 ± 0.34 |
| PASTPSVLSSEQEFQMFPKSRLSS [ETS2] | 4.57 ± 0.21 | 4.57 ± 0.24 |
| YKLVGSPPWKEAFRQRCLERMRNS [RPAIN] | 2.74 ± 0.32 | 2.98 ± 0.52 |
| EKKKAHYRQSSFPHCSDLMPSGSE [KCNA4] | 4.2 ± 0.2 | 4.31 ± 0.17 |
| QDVDPVHNLIEQVSLGLGQPWHAV [FBXO33] | 2.75 ± 0.17 | 2.55 ± 0.18 |
| YAYSNGIDYKTTTILLDGRRVRLE [RAB40C] | 2.68 ± 0.3 | 2.56 ± 0.34 |

| Sequence | protein stability index (treatment: DMSO) | protein stability index (treatment: MLN4924 1 uM, 8 h) |
| --- | --- | --- |
| SWTTVTSMTTPRCYVGATVLRGRL [KLHL12] | 2.23 ± 0.15 | 2.24 ± 0.35 |
| SCLRRRRHPPKVGDDSDLSEGFES [SMG5] | 5.02 ± 0.32 | 4.93 ± 0.058 |
| LSPDPEERPGAEGAPLLPPPLPPP [ACBD3] | 5.27 ± 0.15 | 5.32 ± 0.17 |
| TSSSTVVSTQRSQDHFHVFVGDLS [TIA1] | 3.34 ± 0.071 | 3.42 ± 0.23 |
| KLEEERAKLHDVELHQVAERVEAL [GNB5] | 5 ± 0.34 | 5.15 ± 0.18 |
| AVKKFVESEDDPVVKKIALREIRM [CDKL4] | 2.52 ± 0.25 | 2.98 ± 0.26 |
| EASGYVDRDMFFKICESLNVPVDD [EFHC1] | 3.95 ± 0.29 | 4.17 ± 0.44 |
| LYKSLKTLSAELVPWLNLKKQDEN [CEP70] | 2.37 ± 0.49 | 2.03 ± 0.37 |
| GPALWLRSTCVYVCALSALPAGPL [PLEKHN1] | 2.98 ± 0.63 | 3.27 ± 0.74 |
| GLQNCVYPWDENHCKEKRKTSLLD [NETO1] | 3.24 ± 0.25 | 3.52 ± 0.28 |
| LYLEEIADRIIEVDMECQTDAFLD [RSPH3] | 2.44 ± 0.74 | 2.59 ± 0.28 |
| CIPATVRSSFANQGEICLCTSRIF [ALDH8A1] | 2.28 ± 0.52 | 2.38 ± 0.21 |
| AERLRAELLDLKAGGFSIRNQKGE [MYORG] | 4.1 ± 0.26 | 4.24 ± 0.29 |
| GRKRRQTSMTDFYHSKRRLIFSKR [CDKN1A] | 3.35 ± 0.51 | 4.07 ± 0.38 |
| LWPFAWLQVAGLSEEQLQEPITGW [LPCAT4] | 2.38 ± 0.18 | 2.5 ± 0.34 |
| EGLRRRRGREAGPPQPMVPLAVEN [PBXIP1] | 5 ± 0.49 | 4.98 ± 0.23 |
| MEESKAKFENLCKLMKEILDKKVE [HSP90AB1] | 3.34 ± 0.28 | 3.29 ± 0.19 |
| RCKEENTIILQQLLPLRTKVAKLL [NLN] | 2.47 ± 0.25 | 2.21 ± 0.17 |
| IAENGVSERDSEAAKQNHVTADDF [EHMT1] | 5.39 ± 0.15 | 5.42 ± 0.11 |
| SRTSCRLSGGLGAGSCRLGSAGGL [KRT17] | 2.33 ± 0.44 | 2.23 ± 0.36 |
| PGRSSVASPRRLSNVSSSGSINLL [MAP2] | 3.63 ± 0.16 | 3.48 ± 0.16 |
| ESVEQLESRIVEQENAIQTMELRN [SNX8] | 5.41 ± 0.21 | 5.51 ± 0.11 |
